Starred links: 1 amine or outer side, 2 acyl side, 3 side chain; linkers in the order of their positions; H or OH if unused. Positions of bridges follow the written chain, without caps; N, C: chain ends. Non-standard residues stand in square brackets, D forms with d. Primed or numbered codes have the meaning given here. PyrS2″ = (S)-3-amino-1-((pent-4-en-1-yloxy)carbonyl)pyrrolidine-3-carboxylic acid (stapling residue), C=CCCCOC(=O)N1CC[C@@](N[*:1])(C(=O)[*:2])C1; B5(4) = 2,2-bis(4-pentenyl)glycine = 2-amino-2-(pent-4-en-1-yl)hept-6-enoic acid (stitching residue), C=CCCCC(CCCC=C)(N[*:1])C(=O)[*:2]; B5(5) = 2,2-bis(4-pentenyl)glycine, 2-amino-2-(pent-4-en-1-yl)hept-6-enoic acid (stitching residue), C=CCCCC(CCCC=C)(N[*:1])C(=O)[*:2]; TfeGA = (S)-2-amino-3-((carboxymethyl)(2,2,2-trifluoroethyl)amino)propanoic acid, O=C([C@H](CN(CC(=O)[*:3])CC(F)(F)F)N[*:1])[*:2]; PyrS2 = (S)-3-amino-1-((pent-4-en-1-yloxy)carbonyl)pyrrolidine-3-carboxylic acid, C=CCCCOC(=O)N1CC[C@@](N[*:1])(C(=O)[*:2])C1; B5(22) = 2-amino-2-(pent-4-en-1-yl)hept-6-enoic acid (two alkene side chains), C=CCCCC(CCCC=C)(N[*:1])C(=O)[*:2]; 3Br4FF = (S)-2-amino-3-(3-bromo-4-fluorophenyl)propanoic acid, O=C([C@H](Cc1ccc(F)c(Br)c1)N[*:1])[*:2]; B5(3) = 2,2-bis(4-pentenyl)glycine (stitching residue), C=CCCCC(CCCC=C)(N[*:1])C(=O)[*:2]; B5 = 2-amino-2-(pent-4-en-1-yl)hept-6-enoic acid, C=CCCCC(CCCC=C)(N[*:1])C(=O)[*:2]; Phe(3-COOH) = N[C@@H](Cc1cccc(C(=O)O)c1)C(=O)O; Phe(2-CF3) = N[C@@H](Cc1ccccc1C(F)(F)F)C(=O)O; Phe(3,4-Me2) = Cc1ccc(C[C@H](N)C(=O)O)cc1C; Phe(3-Br) = N[C@@H](Cc1cccc(Br)c1)C(=O)O; Bta = N[C@@H](Cc1csc2ccccc12)C(=O)O; αAllylPro = C=CC[C@@]1(C(=O)O)CCCN1; tBuAla = CC(C)(C)C[C@H](N)C(=O)O; 3Thi = N[C@@H](Cc1ccsc1)C(=O)O; hSer = N[C@@H](CCO)C(=O)O

In the first experiment the target is full-length beta-Catenin (Uniprot ID P35222) (Homo sapiens (Human)) (UniProt P35222). Briefly: fluorescence polarization competition; full-length beta-catenin, competitor probe 5FAM-TCF4(10-53).
Target sequence in this assay (P35222 whole entry): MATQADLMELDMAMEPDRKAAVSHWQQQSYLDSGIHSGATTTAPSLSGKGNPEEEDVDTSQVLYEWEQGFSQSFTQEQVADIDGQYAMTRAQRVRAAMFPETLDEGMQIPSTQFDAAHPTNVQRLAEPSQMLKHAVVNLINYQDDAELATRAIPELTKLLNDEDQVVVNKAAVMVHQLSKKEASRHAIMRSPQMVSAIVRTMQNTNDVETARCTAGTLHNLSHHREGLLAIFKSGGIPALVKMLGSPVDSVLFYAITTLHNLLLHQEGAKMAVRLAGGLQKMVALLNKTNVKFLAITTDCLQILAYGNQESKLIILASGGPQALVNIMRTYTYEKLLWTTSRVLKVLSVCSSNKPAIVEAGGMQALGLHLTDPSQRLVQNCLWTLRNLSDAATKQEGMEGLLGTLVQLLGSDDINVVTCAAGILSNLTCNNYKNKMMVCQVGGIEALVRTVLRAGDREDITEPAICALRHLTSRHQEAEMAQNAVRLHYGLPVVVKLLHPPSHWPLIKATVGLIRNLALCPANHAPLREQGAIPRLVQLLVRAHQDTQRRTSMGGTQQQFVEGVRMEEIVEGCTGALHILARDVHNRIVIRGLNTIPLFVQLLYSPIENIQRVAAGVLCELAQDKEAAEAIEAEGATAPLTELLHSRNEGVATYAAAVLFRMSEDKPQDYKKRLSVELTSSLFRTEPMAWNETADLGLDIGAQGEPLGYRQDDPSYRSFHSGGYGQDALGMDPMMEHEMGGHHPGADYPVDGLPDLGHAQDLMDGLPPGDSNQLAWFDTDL
As to Ac-[αAllylPro]D[tBuAla][B5(4)]D[Phe(3-COOH)]AAFL[PyrS2][Phe(2-CF3)][Phe(3,4-Me2)]S-NH2 (staple 1-4, 4-11) [I-2293], the IC50 was 15 nM.

As to Ac-[αAllylPro]D[tBuAla][B5(4)]D[Phe(3-COOH)]AAFL[PyrS2][Phe(2-CF3)][3Br4FF]S-NH2 (staple 1-4, 4-11) [I-2289], the IC50 is 8 nM.

The molecule Ac-[αAllylPro]D[tBuAla][B5(4)]D[Phe(3-COOH)]QAFL[PyrS2][Phe(2-CF3)][3Br4FF]A-NH2 (staple 1-4, 4-11) [I-2290] registered an IC50 of 14 nM.

Ac-[αAllylPro]D[tBuAla][B5(4)]D[Phe(3-COOH)]AAFL[PyrS2][3Thi][Phe(3,4-Me2)]Q-NH2 (staple 1-4, 4-11) [I-2291]: the IC50 was 5 nM.

Ac-[αAllylPro]D[tBuAla][B5(4)]D[Phe(3-COOH)]AAFL[PyrS2][3Thi][3Br4FF]Q-NH2 (staple 1-4, 4-11) [I-2287] came in with an IC50 of 7 nM.

A further experiment shares this target. The experiment can be described thus: fluorescence polarization competition; 10 nM full-length beta-catenin + 10 nM 5FAM-TCF4(10-53) probe.
Target sequence in this assay (P35222 whole entry): as above
On to Ac-[αAllylPro]D[tBuAla][B5(5)]D[TfeGA]AAFN[PyrS2″][3Thi][Bta][dT]-NH2 (staple 1-4, 4-11; also: staple isomer composition, later-eluting HPLC peak) [I-949], for which the EC50 turned out to be 2260 nM.

Regarding Ac-[αAllylPro]D[tBuAla][B5(5)]D[TfeGA]AAFN[PyrS2″][3Thi][Bta][dT]-NH2 (staple 1-4, 4-11; also: staple isomer composition, earlier-eluting HPLC peak) [I-948], the EC50 was found to be 2430 nM.

With Ac-[αAllylPro]D[tBuAla][B5(5)]D[TfeGA]AAFN[PyrS2″][3Thi][Bta]T-NH2 (staple 1-4, 4-11; also: staple isomer composition, earlier-eluting HPLC peak) [I-942], the EC50 turned out to be 1280 nM.

As for Ac-[αAllylPro]D[tBuAla][B5(5)]D[TfeGA]AAFN[PyrS2″][3Thi][Bta]L-NH2 (staple 1-4, 4-11; also: staple isomer composition, later-eluting HPLC peak) [I-947], the concentration giving a half-maximal response (EC50) was found to be 1050 nM.

For the molecule Ac-[αAllylPro]D[tBuAla][B5]D[TfeGA]AAFN[PyrS2][3Thi][Bta][hSer]-NH2 (staple 1-4, 4-11; also: later-eluting staple isomer composition) [I-951], the EC50 was 1470 nM.

For the molecule Ac-[αAllylPro]D[tBuAla][B5(5)]D[TfeGA]AAFN[PyrS2″][3Thi][Bta]A-NH2 (staple 1-4, 4-11; also: staple isomer composition, later-eluting HPLC peak) [I-945], the EC50 worked out at 1080 nM.

As to Ac-[αAllylPro]D[tBuAla][B5(22)]D[TfeGA]AAFN[PyrS2][3Thi][Bta]S-NH2 (staple 1-4, 4-11; also: staple isomer, earlier eluting HPLC peak) [I-940], the concentration giving a half-maximal response (EC50) stood at 1740 nM.

On to Ac-[αAllylPro]D[tBuAla][B5(5)]D[TfeGA]AAFN[PyrS2″][3Thi][Bta]A-NH2 (staple 1-4, 4-11; also: staple isomer composition, earlier-eluting HPLC peak) [I-944], for which the concentration giving a half-maximal response (EC50) was determined as 761 nM.

For Ac-[αAllylPro]D[tBuAla][B5(4)]D[TfeGA]AAFN[PyrS2″][3Thi][Bta][hSer]-NH2 (staple 1-4, 4-11; also: earlier-eluting staple isomer composition) [I-950], the EC50 stood at 1630 nM.

Regarding Ac-[αAllylPro]D[tBuAla][B5(5)]D[TfeGA]AAFN[PyrS2″][3Thi][Bta]T-NH2 (staple 1-4, 4-11; also: staple isomer composition, later-eluting HPLC peak) [I-943], the half-maximal effective concentration (EC50) stood at 1990 nM.

For Ac-[αAllylPro]D[tBuAla][B5(22)]D[TfeGA]AAFN[PyrS2][3Thi][Bta]S-NH2 (staple 1-4, 4-11; also: staple isomer composition, later-eluting HPLC peak) [I-941], the 50% effective concentration (EC50) was 2110 nM.

With Ac-[αAllylPro]D[tBuAla][B5(5)]D[TfeGA]AAFN[PyrS2″][3Thi][Bta]L-NH2 (staple 1-4, 4-11; also: staple isomer composition, earlier-eluting HPLC peak) [I-946], the EC50 worked out at 798 nM.

Another experiment has the same target. Briefly: fluorescence polarization competition; full-length beta-catenin, 5FAM-TCF4(10-53) probe.
Target sequence in this assay (P35222 2-781 limits assumed): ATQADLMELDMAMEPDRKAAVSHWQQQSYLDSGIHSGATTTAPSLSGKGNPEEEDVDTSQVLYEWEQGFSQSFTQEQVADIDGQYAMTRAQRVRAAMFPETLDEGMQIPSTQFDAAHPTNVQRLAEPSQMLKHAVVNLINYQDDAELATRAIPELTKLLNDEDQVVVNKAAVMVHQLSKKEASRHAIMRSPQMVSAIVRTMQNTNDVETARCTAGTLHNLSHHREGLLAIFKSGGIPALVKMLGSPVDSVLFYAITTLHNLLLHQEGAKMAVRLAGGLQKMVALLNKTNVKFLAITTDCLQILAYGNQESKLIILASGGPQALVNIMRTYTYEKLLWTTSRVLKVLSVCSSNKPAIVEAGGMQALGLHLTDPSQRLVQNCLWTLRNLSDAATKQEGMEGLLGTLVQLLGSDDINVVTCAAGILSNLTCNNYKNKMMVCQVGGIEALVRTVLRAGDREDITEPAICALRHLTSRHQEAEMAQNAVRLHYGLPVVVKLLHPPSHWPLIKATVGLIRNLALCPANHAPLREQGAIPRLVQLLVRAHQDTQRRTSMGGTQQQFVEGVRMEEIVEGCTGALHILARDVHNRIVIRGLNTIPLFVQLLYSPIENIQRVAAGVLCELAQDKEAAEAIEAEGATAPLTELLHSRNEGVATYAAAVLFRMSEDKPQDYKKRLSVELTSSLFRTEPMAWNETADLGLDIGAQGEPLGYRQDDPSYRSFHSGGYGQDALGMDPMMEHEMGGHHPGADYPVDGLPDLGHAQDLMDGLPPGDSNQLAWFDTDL
For the molecule Ac-[αAllylPro]D[tBuAla][B5(5)]D[TfeGA]AAFN[PyrS2″][3Thi][Bta][dT]-NH2 (staple 1-4, 4-11; also: staple isomer composition, later-eluting HPLC peak) [I-949], the 50% inhibitory concentration (IC50) amounted to 2260 nM.

For Ac-[αAllylPro]D[tBuAla][B5(5)]D[TfeGA]AAFN[PyrS2″][3Thi][Bta][dT]-NH2 (staple 1-4, 4-11; also: staple isomer composition, earlier-eluting HPLC peak) [I-948], the IC50 worked out at 2430 nM.

Molecule Ac-[αAllylPro]D[tBuAla][B5]NTAAFN[PyrS2][3Thi][Bta]W-NH2 (staple 1-4, 4-11; also: later eluting HPLC isomer) [I-2139] came in with an IC50 of 970 nM.

The molecule Ac-[αAllylPro]D[tBuAla][B5(5)]D[TfeGA]AAFN[PyrS2″][3Thi][Bta]T-NH2 (staple 1-4, 4-11; also: staple isomer composition, earlier-eluting HPLC peak) [I-942] displayed an IC50 of 1280 nM.

With Ac-[αAllylPro]D[tBuAla][B5]NTAAFH[PyrS2][3Thi][Bta]Q-NH2 (staple 1-4, 4-11; also: later eluting HPLC isomer) [I-2147], the IC50 came to 390 nM.

Ac-[αAllylPro]D[tBuAla][B5]NTAAFT[PyrS2][3Thi][Bta]F-NH2 (staple 1-4, 4-11; also: later eluting HPLC isomer) [I-2145]: the half-inhibitory concentration (IC50) was found to be 2070 nM.

With Ac-[αAllylPro]D[tBuAla][B5]NTAAFH[PyrS2][3Thi][Bta]Q-NH2 (staple 1-4, 4-11; also: earlier eluting HPLC isomer) [I-2146], the concentration for half-maximal inhibition (IC50) stood at 248 nM.

On to Ac-[αAllylPro]D[tBuAla][B5(3)]NTAAFN[PyrS2″][3Thi][Bta]W-NH2 (staple 1-4, 4-11; also: earlier eluting HPLC isomer) [I-2138], for which the IC50 worked out at 1010 nM.

Ac-[αAllylPro]D[tBuAla][B5(5)]D[TfeGA]AAFN[PyrS2″][3Thi][Bta]L-NH2 (staple 1-4, 4-11; also: staple isomer composition, later-eluting HPLC peak) [I-947] had a half-maximal inhibitory concentration (IC50) of 1050 nM.

Molecule Ac-[αAllylPro]D[tBuAla][B5]D[TfeGA]AAFN[PyrS2][3Thi][Bta][hSer]-NH2 (staple 1-4, 4-11; also: later-eluting staple isomer composition) [I-951] had an IC50 of 1470 nM.

With Ac-[αAllylPro]D[tBuAla][B5]TTAAFN[PyrS2][3Thi][Bta]Q-NH2 (staple 1-4, 4-11; also: earlier eluting HPLC isomer) [I-2148], the IC50 stood at 10000 nM.

Regarding Ac-[αAllylPro]D[tBuAla][B5(5)]D[TfeGA]AAFN[PyrS2″][3Thi][Bta]A-NH2 (staple 1-4, 4-11; also: staple isomer composition, later-eluting HPLC peak) [I-945], the IC50 came out at 1080 nM.

The molecule Ac-[αAllylPro]D[tBuAla][B5(22)]D[TfeGA]AAFN[PyrS2][3Thi][Bta]S-NH2 (staple 1-4, 4-11; also: staple isomer, earlier eluting HPLC peak) [I-940] displayed an IC50 of 1740 nM.

Ac-[αAllylPro]D[tBuAla][B5(5)]D[TfeGA]AAFN[PyrS2″][3Thi][Bta]A-NH2 (staple 1-4, 4-11; also: staple isomer composition, earlier-eluting HPLC peak) [I-944] had an IC50 of 761 nM.

In turn, Ac-[αAllylPro]D[tBuAla][B5]NTAAFN[PyrS2][3Thi][Bta]A-NH2 (staple 1-4, 4-11; also: later eluting HPLC isomer) [I-2143] yielded a half-inhibitory concentration (IC50) of 217 nM.

In turn, Ac-[αAllylPro]D[tBuAla][B5(4)]D[TfeGA]AAFN[PyrS2″][3Thi][Bta][hSer]-NH2 (staple 1-4, 4-11; also: earlier-eluting staple isomer composition) [I-950] displayed a concentration for half-maximal inhibition (IC50) of 1630 nM.

Ac-[αAllylPro]D[tBuAla][B5]NTAAFN[PyrS2][3Thi][Bta]H-NH2 (staple 1-4, 4-11; also: later eluting HPLC isomer) [I-2141] yielded a 50% inhibitory concentration (IC50) of 310 nM.

Turning to Ac-[αAllylPro]D[tBuAla][B5]NTAAFN[PyrS2][3Thi][Bta]H-NH2 (staple 1-4, 4-11; also: earlier eluting HPLC isomer) [I-2140], the IC50 was determined as 233 nM.

Ac-[αAllylPro]D[tBuAla][B5(5)]D[TfeGA]AAFN[PyrS2″][3Thi][Bta]T-NH2 (staple 1-4, 4-11; also: staple isomer composition, later-eluting HPLC peak) [I-943] registered an IC50 of 1990 nM.

As to Ac-[αAllylPro]D[tBuAla][B5(22)]D[TfeGA]AAFN[PyrS2][3Thi][Bta]S-NH2 (staple 1-4, 4-11; also: staple isomer composition, later-eluting HPLC peak) [I-941], the IC50 came to 2110 nM.

In turn, Ac-[αAllylPro]D[tBuAla][B5]NTAAFT[PyrS2][3Thi][Bta]F-NH2 (staple 1-4, 4-11; also: earlier eluting HPLC isomer) [I-2144] returned an IC50 of 2020 nM.

Take Ac-[αAllylPro]D[tBuAla][B5(5)]D[TfeGA]AAFN[PyrS2″][3Thi][Bta]L-NH2 (staple 1-4, 4-11; also: staple isomer composition, earlier-eluting HPLC peak) [I-946]: the half-inhibitory concentration (IC50) was determined as 798 nM.

Molecule Ac-[αAllylPro]D[tBuAla][B5]TTAAFN[PyrS2][3Thi][Bta]Q-NH2 (staple 1-4, 4-11; also: later eluting HPLC isomer) [I-2149] gave a 50% inhibitory concentration (IC50) of 7180 nM.

The molecule Ac-[αAllylPro]D[tBuAla][B5]D[Phe(3-COOH)]AAFL[PyrS2][Phe(3-Br)][Phe(2-CF3)]Q-NH2 (staple 1-4, 4-11) [I-2155] had a concentration for half-maximal inhibition (IC50) of 10000 nM.

The molecule Ac-[αAllylPro]D[tBuAla][B5]D[Phe(3-COOH)]AAFL[PyrS2][Phe(3-Br)]FQ-NH2 (staple 1-4, 4-11) [I-2153] had an IC50 of 1480 nM.

The values above are taken from patent US20240116985A1, “STAPLED PEPTIDES AND METHODS THEREOF” (priority 2020, published 2024).
